Measured values published in publication PMC2954813, “Of Bits and Bugs — On the Use of Bioinformatics and a Bacterial Crystal Structure to Solve a Eukaryotic Repeat-Protein Structure” (PLoS ONE, 2010).

How the values were obtained:
Pur-alpha 56-287 (C272S) [1] = molecular target: T1, Pur-alpha 56-287 (C272S) (human, UniProt Q00577 56-287, C272S); assay: filter binding; replicates 491, 438, 306; 2.5 mM MgCl2; 100 mM NaCl, 10 mM HEPES pH 8.0, 2.5 mM MgCl2, 1 mM DTT; 0.5 nM labeled oligo, 0-10 uM protein, 20 min, room temperature; conditions: protein: recombinant; tags: GST removed by protease (tag cleaved); chain copies: 2; label: 5'-32P; single strand
T1 sequence: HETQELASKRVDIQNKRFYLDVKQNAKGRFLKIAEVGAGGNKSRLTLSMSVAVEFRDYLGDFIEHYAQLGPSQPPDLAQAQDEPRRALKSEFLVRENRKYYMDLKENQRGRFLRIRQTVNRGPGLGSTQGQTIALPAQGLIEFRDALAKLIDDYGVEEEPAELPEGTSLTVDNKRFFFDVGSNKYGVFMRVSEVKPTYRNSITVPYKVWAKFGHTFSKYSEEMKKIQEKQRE

Pur-alpha 56-287 (C272S) [2] = molecular target: T1, Pur-alpha 56-287 (C272S); assay: filter binding; replicates 207, 258; 2.5 mM MgCl2; 100 mM NaCl, 10 mM HEPES pH 8.0, 2.5 mM MgCl2, 1 mM DTT; 0.5 nM labeled oligo, 0-10 uM protein, 20 min, room temperature; conditions: protein: recombinant; tags: GST removed by protease (tag cleaved); chain copies: 2; label: 5'-32P; single strand
[3] = molecular target: the molecule itself; assay: crystal structure; selenomethionine-substituted crystals grown at 4°C in 2.8 M sodium formate, protein 1.2 mg/mL, stoichiometric addition of the DNA oligomer hTel12 (not visible in the model); SAD, 1.9 Å
[4] = molecular target: the molecule itself; assay: crystal structure; native crystals grown at 21°C, hanging drop, protein 2.2 mg/ml, 100 mM HEPES (pH 7.2), 20% PEG 3350; molecular replacement, 2.2 Å
Pur-alpha 56-287 (C272S) [5] = molecular target: T1, Pur-alpha 56-287 (C272S); assay: filter binding; protein 0-10 uM; 2.5 mM MgCl2; 100 mM NaCl, 10 mM HEPES pH 8.0, 2.5 mM MgCl2, 1 mM DTT; 0.5 nM labeled oligo, 0-10 uM protein, 20 min, room temperature; conditions: protein: recombinant; tags: GST removed by protease (tag cleaved); chain copies: 2; label: 5'-32P; single strand

B1: hTel12 (ssDNA)
DNA: AGGGTTAGGGTT
For B1, the Kd (Pur-alpha 56-287 (C272S) [1]) was 411 ± 95 nM.

B2: JCVupTAR (ssDNA)
DNA: GGAGGGGGAGGC
B2 showed a Kd (Pur-alpha 56-287 (C272S) [2]) of 233 ± 36 nM.

B3: selenomethionine-substituted B. burgdorferi Pur-α 8–105 (L17M, F27M, I64M) (domain or fragment)
chain: ERGEVYSEKMFTESERTYFMNVKENRKGDYFLNIVESKRSPSGDFERHSIFVYEENMNEFESNLLKAIAVIKQKVSTGSVGSSARHNKGYGEYGERSK
modifications: selenomethionine-substituted (methionines introduced at positions 17, 27 and 64; no other methionines in this fragment)
notes: Expressed from the pGEX6p1 vector (BamHI/XhoI); Only amino acids 8 to 84 are visible in the electron density; also called SeMet; selenomethionine-derivatized protein; source: E. coli BL21, purified (glutathione column, protease cleavage, Q column, heparin column, size-exclusion chromatography)
In the case of B3, the “stoichiometry N” value [3] is reported as 2.

B4: B. burgdorferi Pur-α 8–105 (domain or fragment, Borrelia burgdorferi B31, UniProt O51076-2 8-105, looked up)
chain: ERGEVYSEKLFTESERTYFFNVKENRKGDYFLNIVESKRSPSGDFERHSIFVYEENINEFESNLLKAIAVIKQKVSTGSVGSSARHNKGYGEYGERSK
notes: Pur-α (hypothetical protein BB0047) of Borrelia burgdorferi B31, 127-amino acid gene product, amino acids 8 to 105; Expressed from the pGEX6p1 vector (BamHI/XhoI); also called native protein; BB0047 fragment; source: E. coli BL21, purified (glutathione column, protease cleavage, Q column, heparin column, size-exclusion chromatography)
B4: binds [4].

B5: Control (ssDNA)
DNA: CCTCCGCCTCCG
B5: no binding (Pur-alpha 56-287 (C272S) [5]).
